The text below walks through data of PMC4427203 (2015).

This experiment has as its target Hsp90 600-709 (Saccharomyces cerevisiae (strain ATCC …, UniProt P02829)). Put plainly: Kd quoted from earlier work (method not stated here).

B1: AIP 172-315 (protein)
chain: DEEKAKAVPLIHQEGNRLYREGHVKEAAAKYYDAIACLKNLQMKEQPGSPEWIQLDQQITPLLLNYCQCKLVVEEYYEVLDHCSSILNKYDDNVKAYFKRGKAHAAVWNAQEAQADFAKVLELDPALAPVVSRELRALEARIRQ
Molecule B1 yielded an equilibrium dissociation constant (Kd) of 13.3 µM.
